# Results reported in patent US20240279356A1 (Xencor, published 2024).
# B1: XENP32561 (bispecific antibody)
# heavy: QVQLVQSGAEVKKPGASVKVSCKASGYTFTSYWMHWVRQAPGQGLEWMGMIHPNSDNTIYYEKFQGRVTMTVDKSISTAYMELSRLRSDDTAVYYCAIIITPVVPKFDYWGQGTLVTVSSASTKGPSVFPLAPSSKSTSGGTAALGCLVKDYFPEPVTVSWNSGALTSGVHTFPAVLQSSGLYSLSSVVTVPSSSLGTQTYICNVNHKPSDTKVDKKVEPKSCDKTHTCPPCPAPPVAGPSVFLFPPKPKDTLMISRTPEVTCVVVDVKHEDPEVKFNWYVDGVEVHNAKTKPREEEYNSTYRVVSVLTVLHQDWLNGKEYKCKVSNKALPAPIEKTISKAKGQPREPQVYTLPPSREEMTKNQVSLTCDVSGFYPSDIAVEWESDGQPENNYKTTPPVLDSDGSFFLYSKLTVDKSRWEQGDVFSCSVMHEALHNHYTQKSLSLSPGK
# scFv-Fc: not shown
# light: DIVMTQSPDSLAVSLGERATINCKASHSVGTSVAWYQQKPGQSPKLLIYWASTRHTGVPDRFTGSGSGTDFTLTISSLQAEDVAVYFCQQYSSYPLTFGAGTKLEIKRTVAAPSVFIFPPSDEQLKSGTASVVCLLNNFYPREAKVQWKVDNALQSGNSQESVTEQDSKDSTYSLSSTLTLSKADYEKHKVYACEVTHQGLSSPVTKSFNRGEC
# notes: 1+1 Fab-scFv-Fc
# B2: XENP32751 (bispecific antibody)
# heavy: QVQLVQSGAEVKKPGASVKVSCKASGYTFTSYWMHWVRQAPGQGLEWMGMIHPNSDNTIYYEKFQGRVTMTVDKSISTAYMELSRLRSDDTAVYYCAIIITPVVPKFDYWGQGTLVTVSSASTKGPSVFPLAPSSKSTSGGTAALGCLVKDYFPEPVTVSWNSGALTSGVHTFPAVLQSSGLYSLSSVVTVPSSSLGTQTYICNVNHKPSDTKVDKKVEPKSCDKTHTCPPCPAPPVAGPSVFLFPPKPKDTLMISRTPEVTCVVVDVKHEDPEVKFNWYVDGVEVHNAKTKPREEEYNSTYRVVSVLTVLHQDWLNGKEYKCKVSNKALPAPIEKTISKAKGQPREPQVYTLPPSREEMTKNQVSLTCDVSGFYPSDIAVEWESDGQPENNYKTTPPVLDSDGSFFLYSKLTVDKSRWEQGDVFSCSVMHEALHNHYTQKSLSLSPGK
# Fab-scFv-Fc: QVQLVQSGAEVKKPGASVKVSCKASGYTFTSYWMHWVRQAPGQGLEWMGMIHPNSDNTIYYEKFQGRVTMTVDKSISTAYMELSRLRSDDTAVYYCAIIITPVVPKFDYWGQGTLVTVSSASTKGPSVFPLAPSSKSTSGGTAALGCLVKDYFPEPVTVSWNSGALTSGVHTFPAVLQSSGLYSLSSVVTVPSSSLGTQTYICNVNHKPSNTKVDKKVEPKSCGGGGSGGGGSQAVVTQEPSLTVSPGGTVTLTCGSSTGAVTTSNYANWVQQKPGKSPRGLIGGTNKRAPGVPARFSGSLLGGKAALTISGAQPEDEADYYCALWYSNHWVFGGGTKLTVLGKPGSGKPGSGKPGSGKPGSEVQLVESGGGLVQPGGSLRLSCAASGFTFSTYAMNWVRQAPGKGLEWVGRIRSKANNYATYYADSVKGRFTISRDDSKNTLYLQMNSLRAEDTAVYYCVRHGNFGDSYVSWFAYWGQGTLVTVSSGGGGSGGGGSKTHTCPPCPAPPVAGPSVFLFPPKPKDTLMISRTPEVTCVVVDVKHEDPEVKFNWYVDGVEVHNAKTKPREEQYNSTYRVVSVLTVLHQDWLNGKEYKCKVSNKALPAPIEKTISKAKGQPREPQVYTLPPSREQMTKNQVKLTCLVKGFYPSDIAVEWESNGQPENNYKTTPPVLDSDGSFFLYSKLTVDKSRWQQGNVFSCSVMHEALHNHYTQKSLSLSPGK
# light: DIVMTQSPDSLAVSLGERATINCKASHDVGTYVAWYQQKPGQSPKLLIYWASTRHTGVPDRFTGSGSGTDFTLTISSLQAEDVAVYFCQQYSSYPLTFGAGTKLEIKRTVAAPSVFIFPPSDEQLKSGTASVVCLLNNFYPREAKVQWKVDNALQSGNSQESVTEQDSKDSTYSLSSTLTLSKADYEKHKVYACEVTHQGLSSPVTKSFNRGEC
# notes: 2+1 Fab2-scFv-Fc; copies: 1 + 1 + 2
# B3: XENP32852 (bispecific antibody)
# heavy 1: QVQLVQSGAEVKKPGASVKVSCKASGYTFTSYWMHWVRQAPGQGLEWMGMIHPNSDNTIYYEKFQGRVTMTVDKSISTAYMELSRLRSDDTAVYYCAIIITPVVPKFDYWGQGTLVTVSSASTKGPSVFPLAPSSKSTSGGTAALGCLVKDYFPEPVTVSWNSGALTSGVHTFPAVLQSSGLYSLSSVVTVPSSSLGTQTYICNVNHKPSDTKVDKKVEPKSCDKTHTCPPCPAPPVAGPSVFLFPPKPKDTLMISRTPEVTCVVVDVKHEDPEVKFNWYVDGVEVHNAKTKPREEEYNSTYRVVSVLTVLHQDWLNGKEYKCKVSNKALPAPIEKTISKAKGQPREPQVYTLPPSREEMTKNQVSLTCDVSGFYPSDIAVEWESDGQPENNYKTTPPVLDSDGSFFLYSKLTVDKSRWEQGDVFSCSVMHEALHNHYTQKSLSLSPGK
# heavy 2: QVQLVQSGAEVKKPGASVKVSCKASGYTFTSYWMHWVRQAPGQGLEWMGMIHPNSDNTIYYEKFQGRVTMTVDKSISTAYMELSRLRSDDTAVYYCAIIITPVVPKFDYWGQGTLVTVSSASTKGPSVFPLAPSSKSTSGGTAALGCLVKDYFPEPVTVSWNSGALTSGVHTFPAVLQSSGLYSLSSVVTVPSSSLGTQTYICNVNHKPSNTKVDKKVEPKSCGGGGSGGGGSQAVVTQEPSLTVSPGGTVTLTCGSSTGAVTTSNYANWVQQKPGKSPRGLIGGTNKRAPGVPARFSGSLLGGKAALTISGAQPEDEADYYCALWYSNHWVFGGGTKLTVLGKPGSGKPGSGKPGSGKPGSEVQLVESGGGLVQPGGSLRLSCAASGFTFSTYAMNWVRQAPGKGLEWVGRIRSKANNYATYYADSVKGRFTISRDDSKNTLYLQMNSLRAEDTAVYYCVRHGNFGDSYVSWFAYWGQGTLVTVSSGGGGSGGGGSKTHTCPPCPAPPVAGPSVFLFPPKPKDTLMISRTPEVTCVVVDVKHEDPEVKFNWYVDGVEVHNAKTKPREEQYNSTYRVVSVLTVLHQDWLNGKEYKCKVSNKALPAPIEKTISKAKGQPREPQVYTLPPSREQMTKNQVKLTCLVKGFYPSDIAVEWESNGQPENNYKTTPPVLDSDGSFFLYSKLTVDKSRWQQGNVFSCSVMHEALHNHYTQKSLSLSPGK
# light: DIVMTQSPDSLAVSLGERATINCKASHDVGTSVAWYQQKPGQSPKLLIYWASTRHTGVPDRFTGSGSGTDFTLTISSLQAEDVAVYFCQQYYSYPLTFGAGTKLEIKRTVAAPSVFIFPPSDEQLKSGTASVVCLLNNFYPREAKVQWKVDNALQSGNSQESVTEQDSKDSTYSLSSTLTLSKADYEKHKVYACEVTHQGLSSPVTKSFNRGEC
# notes: as for B2
# B4: XENP32853 (bispecific antibody)
# heavy 1: QVQLVQSGAEVKKPGASVKVSCKASGYTFTSYWMHWVRQAPGQGLEWMGMIHPNSDNTIYYEKFQGRVTMTVDKSISTAYMELSRLRSDDTAVYYCAIIITPVVPKFDYWGQGTLVTVSSASTKGPSVFPLAPSSKSTSGGTAALGCLVKDYFPEPVTVSWNSGALTSGVHTFPAVLQSSGLYSLSSVVTVPSSSLGTQTYICNVNHKPSDTKVDKKVEPKSCDKTHTCPPCPAPPVAGPSVFLFPPKPKDTLMISRTPEVTCVVVDVKHEDPEVKFNWYVDGVEVHNAKTKPREEEYNSTYRVVSVLTVLHQDWLNGKEYKCKVSNKALPAPIEKTISKAKGQPREPQVYTLPPSREEMTKNQVSLTCDVSGFYPSDIAVEWESDGQPENNYKTTPPVLDSDGSFFLYSKLTVDKSRWEQGDVFSCSVMHEALHNHYTQKSLSLSPGK
# heavy 2: QVQLVQSGAEVKKPGASVKVSCKASGYTFTSYWMHWVRQAPGQGLEWMGMIHPNSDNTIYYEKFQGRVTMTVDKSISTAYMELSRLRSDDTAVYYCAIIITPVVPKFDYWGQGTLVTVSSASTKGPSVFPLAPSSKSTSGGTAALGCLVKDYFPEPVTVSWNSGALTSGVHTFPAVLQSSGLYSLSSVVTVPSSSLGTQTYICNVNHKPSNTKVDKKVEPKSCGGGGSGGGGSQAVVTQEPSLTVSPGGTVTLTCGSSTGAVTTSNYANWVQQKPGKSPRGLIGGTNKRAPGVPARFSGSLLGGKAALTISGAQPEDEADYYCALWYSNHWVFGGGTKLTVLGKPGSGKPGSGKPGSGKPGSEVQLVESGGGLVQPGGSLRLSCAASGFTFSTYAMNWVRQAPGKGLEWVGRIRSKYNNYATYYADSVKGRFTISRDDSKNTLYLQMNSLRAEDTAVYYCVRHGNFGDEYVSWFAYWGQGTLVTVSSEPKSSDKTHTCPPCPAPPVAGPSVFLFPPKPKDTLMISRTPEVTCVVVDVKHEDPEVKFNWYVDGVEVHNAKTKPREEQYNSTYRVVSVLTVLHQDWLNGKEYKCKVSNKALPAPIEKTISKAKGQPREPQVYTLPPSREQMTKNQVKLTCLVKGFYPSDIAVEWESNGQPENNYKTTPPVLDSDGSFFLYSKLTVDKSRWQQGNVFSCSVMHEALHNHYTQKSLSLSPGK
# light: DIVMTQSPDSLAVSLGERATINCKASHDVGTSVAWYQQKPGQSPKLLIYWASTRHTGVPDRFTGSGSGTDFTLTISSLQAEDVAVYFCQQYYSYPLTFGAGTKLEIKRTVAAPSVFIFPPSDEQLKSGTASVVCLLNNFYPREAKVQWKVDNALQSGNSQESVTEQDSKDSTYSLSSTLTLSKADYEKHKVYACEVTHQGLSSPVTKSFNRGEC
# notes: as for B2
# Tests used:
# [1] = target: T1, MSLN on OVCAR8 (MSLN^high) and other cancer cell lines (UniProt Q13421 296-598); test: flow cytometry on OVCAR8 cells, detected with A647-labelled anti-human Fc mAb
# T1 construct: whole, on cells; Endogenous surface MSLN; also called MSLN^high OVCAR8 cells; MSLN^low SKOV3 and HT29 cells
# Protocol: Next, the effect of MSLN binding affinity was investigated. 100,000 OVCAR8 (MSLN^high) cells were treated with the indicated concentrations of the indicated test articles. […] Further, XENP32852 and XENP32853 which differ only in CD3 binding affinity have identical binding to OVCAR8 cells confirming that avid binding is due to the MSLN binding domain.
# human MSLN antigen [2] = target: T2, human MSLN antigen (human, UniProt Q13421 296-580, limits assumed); test: Octet BLI; bsAb on anti-human Fc sensor, human MSLN as analyte, one concentration
# T2 construct: Soluble antigen for BLI; also called Mesothelin; MESO
# Source text: (§1) Variants of MESO-C were engineered by introducing point substitutions into the variable heavy region (VH) and the variable light region (VL) to generate 11 VH variants and 16 VL variants (sequences for which are depicted in FIG. 18 as H1.1-H1.13 and in FIG. 19 as L1.1-L1.18). An additional 4 VL variants were generated by combining useful point substitutions (sequences for which are depicted in FIG. 19 as L1.19-L1.22). WT and variant variable heavy regions were paired with WT and variant variable light regions to generate variant variable regions (Fvs) which were produced in the context of anti-MSLN×anti-CD3 bispecific antibodies. The bispecific antibodies were screened for MSLN binding affinity using Octet®, a BioLayer Interferometry (BLI)-based method. Experimental steps for Octet® generally include the following: Immobilization (capture of ligand to a biosensor); Association (dipping of ligand-coated biosensors into wells containing the analyte); and Dissociation (returning of biosensors to well containing buffer). In an initial screening, anti-human Fc sensors were used to capture the bispecific mAbs and dipped into human MSLN antigen (one concentration to screen large library). The resulting dissociation constant of illustrative variants (KD), association rate (kₐ), dissociation rate (kd), as well as sensorgram response are depicted in FIG. 20. In further screening of favorite variants identified in the initial screen (and combination variants), bispecific mAbs were dipped into multiple concentrations of human MSLN antigen, data for which are depicted in FIG. 21 (from various screens).
# human MSLN antigen [3] = target: T2, human MSLN antigen; test: Octet BLI on human MSLN antigen (Example 2B(a)); KD quoted in the FIG. 35 legend
# Source text: as §1
# cyno MSLN = target: T3, cyno MSLN (Macaca fascicularis (cynomolgus)); test: Octet BLI; bsAb on anti-human Fc sensor, cyno MSLN as analyte, one concentration
# T3 construct: soluble antigen for Octet; also called cynomolgus MSLN
# T1 sequence (Q13421 other isoform, or with tags, fused parts or gaps limits assumed): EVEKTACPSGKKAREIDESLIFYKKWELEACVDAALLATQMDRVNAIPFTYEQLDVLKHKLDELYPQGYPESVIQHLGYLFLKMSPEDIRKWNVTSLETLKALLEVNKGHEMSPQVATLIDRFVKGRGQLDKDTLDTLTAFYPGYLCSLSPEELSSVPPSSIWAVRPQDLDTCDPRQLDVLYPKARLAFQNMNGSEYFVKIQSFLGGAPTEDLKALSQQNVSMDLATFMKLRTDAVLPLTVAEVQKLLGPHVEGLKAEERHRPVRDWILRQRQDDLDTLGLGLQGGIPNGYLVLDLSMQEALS
# T2 sequence (Q13421 other isoform, or with tags, fused parts or gaps limits assumed): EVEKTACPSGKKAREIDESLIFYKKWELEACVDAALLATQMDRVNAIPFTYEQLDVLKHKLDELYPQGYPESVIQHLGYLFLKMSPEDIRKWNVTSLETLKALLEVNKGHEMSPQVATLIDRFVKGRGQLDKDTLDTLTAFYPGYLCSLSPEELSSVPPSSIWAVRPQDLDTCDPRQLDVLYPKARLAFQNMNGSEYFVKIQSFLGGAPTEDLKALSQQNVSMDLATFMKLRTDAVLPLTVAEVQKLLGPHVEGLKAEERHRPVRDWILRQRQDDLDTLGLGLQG
Binder,EC50 (read off the curve) [1],Kd (human MSLN antigen [2]),Response (human MSLN antigen [2]),koff (human MSLN antigen [2]),kon (human MSLN antigen [2]),Kd (human MSLN antigen [3]),Kd (cyno MSLN),Response (cyno MSLN),koff (cyno MSLN),kon (cyno MSLN)
B1,~0.2 µg/mL,0.355 nM,1.08,0.000215 s⁻¹,606000 M⁻¹ s⁻¹,0.45 nM,0.413 nM,0.976,0.000248 s⁻¹,600000 M⁻¹ s⁻¹
B2,~0.05 µg/mL,,,,,~12.8 nM,,,,
B3,~0.06 µg/mL,,,,,3.9 nM,,,,
B4,~0.06 µg/mL,,,,,3.9 nM,,,,
